Test results taken from patent publication US20130244255A1, “ANTIBODIES DIRECTED TO GPNMB AND USES THEREOF” (priority 2006, published 2013).

What was measured:
[1] = test system: SK-MEL-5 human melanoma xenograft; experiment: SK-MEL-5 human melanoma xenograft in athymic mice; format: in vivo
Experimental: The tumor inhibitory activity of the CR011-MMAE immunoconjugate was measured in an anti-tumor xenograft model using athymic mice, according to published methods (see Geran et al., Cancer Chemother. Rep. 3:1-104 (1972)). […] When tumors became established (10-20 days), the animals were pair-matched into groups (n=6 mice/group), and treatment was administered by intravenous injection (tail vein).
The SK-MEL-2 human melanoma (ATCC #HTB-68) was derived from a metastatic site (skin of thigh) of a person with malignant melanoma, and the SK− MEL-5 human melanoma (ATCC #HTB-70) was derived from a metastatic site (axillary lymph node) of a person with malignant melanoma (see Fogh et al., J. Natl. Cancer Inst. 59: 221-226 (1977)). Both cell lines were obtained from the American Type Culture Collection.
The effects of treatment were monitored by repetitive tumor measurements across 2 diameters with Vernier calipers; tumor size (in mg) was calculated using a standard formula, (W^2×L)/2, assuming a specific gravity of 1.0. Tumor size and body weights were assessed twice weekly. Mice were examined daily, however, and moribund animals were humanely euthanized if clinical indications of excessive pain or distress were noted (i.e., prostration, hunched posture, paralysis/paresis, distended abdomen, ulcerations, abscesses, seizures, and/or hemorrhages) Animals with tumors exceeding 2,000 mg were removed from the study and euthanized humanely.
Soon after the commencement of treatment with paclitaxel, however, significant tumor growth inhibition was observed (P≦0.039) at day 3 after treatment began, and this anti-tumor effect continued, producing 100% growth inhibition (stasis). The responses of SK-MEL-5-bearing test animals to vinblastine and paclitaxel were short-lived. After cessation of treatment at the maximally tolerated doses, tumors resumed rapid, progressive growth.

GPNMB [2] = target: T1, GPNMB (Homo sapiens, UniProt Q14956); experiment: Binning of antibodies (Luminex competitive binding)
T1 construct: we cloned the human CG56972 extracellular domain (ECD; aa 23-480); made in house; host or cells: HEK 293 cells
T1 sequence (Q14956 23-492): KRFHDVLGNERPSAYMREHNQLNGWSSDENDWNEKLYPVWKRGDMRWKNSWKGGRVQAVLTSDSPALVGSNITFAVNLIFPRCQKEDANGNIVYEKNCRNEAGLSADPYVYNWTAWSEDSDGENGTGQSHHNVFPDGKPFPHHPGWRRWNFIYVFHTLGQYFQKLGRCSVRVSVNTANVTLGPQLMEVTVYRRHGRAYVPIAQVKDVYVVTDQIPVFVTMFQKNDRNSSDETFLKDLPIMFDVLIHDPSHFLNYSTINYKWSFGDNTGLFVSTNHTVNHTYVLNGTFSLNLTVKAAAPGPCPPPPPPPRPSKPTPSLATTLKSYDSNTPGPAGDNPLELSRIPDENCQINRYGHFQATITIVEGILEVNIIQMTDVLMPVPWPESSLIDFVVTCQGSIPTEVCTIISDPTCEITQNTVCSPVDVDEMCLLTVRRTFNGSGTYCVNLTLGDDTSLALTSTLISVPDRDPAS
Experimental: Certain antibodies, described herein were binned in accordance with the protocol described in U.S. Patent Application Publication No. 20030157730. M×hIgG conjugated beads are prepared for coupling to primary antibody. The volume of supernatant needed is calculated using the following formula: (n+10)×50 μL (where n=total number of samples on plate). Where the concentration is known, 0.5 μg/mL is used. Bead stock is gently vortexed, then diluted in supernatant to a concentration of 2500 of each bead per well or 0.5×10^5/mL and incubated on a shaker in the dark at RT overnight, or 2 hours if at a known concentration of 0.5 μg/mL. Following aspiration, 50 μL of each bead is added to each well of filter plate, then washed once by adding 100 μL/well wash buffer and aspirating. Antigen and controls are added to filter plate 50 μL/well then covered and allowed to incubate in the dark for 1 hour on shaker. Following a wash step, a secondary unknown antibody is added at 50 μL/well using the same dilution (or concentration if known) as is used for the primary antibody. The plates are then incubated in the dark for 2 hours at RT on shaker followed by a wash step. Next, 50 μL/well biotinylated m×hIgG diluted 1:500 is added and allowed to incubate in the dark for 1 hour on shaker at RT. Following a wash step, 50 μL/well Streptavidin-PE is added at 1:1000 and allowed to incubate in the dark for 15 minutes on shaker at RT. Following a wash step, each well is resuspended in 80 μL blocking buffer and read using Luminex. […] Competitive binding by antibodies from […] supports antibody specificity for similar or adjacent epitopes. Non competitive binding supports antibody specificity for unique epitopes.
Three bins were created to further test the binding of six anti-GPNMB antibodies. Bin 1 included GPNMB antibodies (1.2.1), (1.10.1), and (2.22.1). Bin 2 included GPNMB antibodies (2.3.1) and (1.15.1), and Bin 3 included GPNMB antibody (2.10.1). The results of the binning assays are provided below in Tables 8 and 9.

GPNMB [3] = target: T1, GPNMB; experiment: BiaCore 2000 analysis of hybridoma supernatants binding to GPNMB
Experimental: Certain Hybridoma cell supernatants (29) were analyzed for binding to GPNMB by BiaCore® 2000 biosensor equipped with a research-grade CM5 sensor chip. A 1:25 dilution of cell supernatant was passed over a protein A surface for 5 min followed by washing the surface for 10 mins. Subsequently, GPNMB was injected for 90 sec. over the surface at a concentration of 880 nM followed by dissociation. Double-referenced binding data were obtained by subtracting the signal from a control flow cell and subtracting the baseline drift of a buffer injected just prior to the antigen injection. GPNMB binding data for each mAb was normalized for the amount of mAb captured on each surface. Normalized, drift corrected responses were also measured. The sensorgrams were fit to a simple 1:1 kinetic model.

[4] = mAb captured on protein A, GPNMB at 880 nM, 1:1 kinetic model

## CR011-vcMMAE: CR011 conjugated to monomethyl auristatin E through a protease cleavable valine-citrulline linker; approx. 4 drugs per antibody
[1]; 10 mg/kg/treatment, compared to PBS-treated controls (P=0.039)
  earliest significant anti-tumor effects, time after treatment began: 10 days
[1]; i.v., q4d×4
  doses at which complete regressions occurred: ≥ 2.5 mg/kg
[1]; i.v., CR011-vcMMAE 1.25 to 20 mg/kg q4d×4, vinblastine […] q4d×4
  anti-tumor effect (in words): Substantial tumor growth inhibition, as well as tumor growth delay and complete regressions
[1]; mouse, in vivo
  toxicity (mortality, body weight or weight gain): no indication of toxicity

## CR011: fully human monoclonal antibody that specifically binds to GPNMB; VH SEQ ID NO: 20, VL SEQ ID NO: 29
GPNMB [2]; Table 8
  bin: VIII
  binning signal against antibody 1.1: 91
  binning signal against antibody 1.11: 10
  binning signal against antibody 1.12: 15
  binning signal against antibody 1.13: 13
  binning signal against antibody 1.15: 0
  binning signal against antibody 1.2: 79
  binning signal against antibody 1.3: 71
  binning signal against antibody 1.7: 21
  binning signal against antibody 1.8: 8
  binning signal against antibody 1.9: 12
  binning signal against antibody xV5: 89
  binning signal against column antibody 1.5: 15
GPNMB [2]; Table 9
  binning signal against antibody 1.1: 127
  binning signal against antibody 1.11: 19
  binning signal against antibody 1.12: 21
  binning signal against antibody 1.13: 5
  binning signal against antibody 1.15: 0
  binning signal against antibody 1.2: 90
  binning signal against antibody 1.3: 51
  binning signal against antibody 1.7: 17
  binning signal against antibody 1.8: 12
  binning signal against antibody 1.9: 19
  binning signal against antibody xV5: 125
  binning signal against column antibody 1.5: −9
GPNMB [2]; Table 9, Cut-off = 90
  bin: VIII
GPNMB [2]; three bins of six anti-GPNMB antibodies
  bin: Bin 2
GPNMB [3]; BiaCore, 1:25 dilution of cell supernatant
  binding to GPNMB (in words): strong binding
GPNMB [3]; [4]
  Kd: 0.052 µM
  ka: 16524 M⁻¹ s⁻¹
  kd: 0.000855 s⁻¹
